According to publication PMC12591160, “Polyadenylation Complex CFII Recognizes Downstream Cis‐element for Pre‐mRNA Polyadenylation Through Interaction with an RNA‐Binding Protein in Arabidopsis”:

Experiments:
[1] = target: T1, MBP-FCARRM-His (RRM domains of FCA) (UniProt O04425 1-343); assay: EMSA; 2 nM probe, 600 nM protein; EMSA: 10 mM HEPES-KOH pH 7.3, 20 mM KCl, 1 mM MgCl2, 1 mM DTT, 5% glycerol, 0.1 ug/uL tRNA, room temperature 30 min (protein eluted with 200 mM imidazole); ITC: 10 mM HEPES-KOH pH 8.0, 150 mM NaCl, 200 mM imidazole, 25 C; conditions: protein: recombinant; tags: MBP (pMAL-c2x), 6xHis; label: Biotin at both ends
T1 sequence: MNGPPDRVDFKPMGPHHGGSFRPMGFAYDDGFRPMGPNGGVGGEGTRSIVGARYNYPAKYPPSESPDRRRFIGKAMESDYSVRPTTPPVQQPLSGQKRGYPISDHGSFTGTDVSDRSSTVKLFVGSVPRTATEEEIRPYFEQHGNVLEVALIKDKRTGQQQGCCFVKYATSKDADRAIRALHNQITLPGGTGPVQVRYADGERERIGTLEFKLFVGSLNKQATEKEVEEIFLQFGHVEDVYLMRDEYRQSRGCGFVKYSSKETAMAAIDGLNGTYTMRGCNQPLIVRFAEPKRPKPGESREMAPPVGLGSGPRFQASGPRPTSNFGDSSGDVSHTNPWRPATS

[2] = target: T2, MBP-FPARRM-His (three RRM domains of FPA) (Arabidopsis thaliana, UniProt Q8LPQ9 1-307); assay: as above; conditions: protein: recombinant; tags: MBP (pMAL-c2x), 6xHis; label: Biotin at both ends
T2 sequence: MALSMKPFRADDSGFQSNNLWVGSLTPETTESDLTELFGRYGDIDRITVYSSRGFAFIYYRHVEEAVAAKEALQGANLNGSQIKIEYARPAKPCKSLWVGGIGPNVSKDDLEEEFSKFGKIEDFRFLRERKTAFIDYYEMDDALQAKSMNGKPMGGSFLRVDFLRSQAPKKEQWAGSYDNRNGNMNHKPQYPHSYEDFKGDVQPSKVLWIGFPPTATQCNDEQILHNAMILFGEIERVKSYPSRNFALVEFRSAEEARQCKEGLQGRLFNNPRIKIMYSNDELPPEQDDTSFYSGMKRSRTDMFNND

[3] = target: T2, MBP-FPARRM-His (three RRM domains of …); assay: ITC; 25 C, 150 mM NaCl, pH 8.0; EMSA: 10 mM HEPES-KOH pH 7.3, 20 mM KCl, 1 mM MgCl2, 1 mM DTT, 5% glycerol, 0.1 ug/uL tRNA, room temperature 30 min (protein eluted with 200 mM imidazole); ITC: 10 mM HEPES-KOH pH 8.0, 150 mM NaCl, 200 mM imidazole, 25 C; conditions: protein: recombinant; tags: MBP (pMAL-c2x), 6xHis
[4] = target: T1, MBP-FCARRM-His (RRM domains of FCA); assay: competition; unlabeled GU-rich competes labeled GU-rich probe; EMSA: 10 mM HEPES-KOH pH 7.3, 20 mM KCl, 1 mM MgCl2, 1 mM DTT, 5% glycerol, 0.1 ug/uL tRNA, room temperature 30 min (protein eluted with 200 mM imidazole); ITC: 10 mM HEPES-KOH pH 8.0, 150 mM NaCl, 200 mM imidazole, 25 C; conditions: protein: recombinant; tags: MBP (pMAL-c2x), 6xHis
[5] = target: T2, MBP-FPARRM-His (three RRM domains of …); assay: EMSA; 2 nM probe, 2000 nM protein; EMSA: 10 mM HEPES-KOH pH 7.3, 20 mM KCl, 1 mM MgCl2, 1 mM DTT, 5% glycerol, 0.1 ug/uL tRNA, room temperature 30 min (protein eluted with 200 mM imidazole); ITC: 10 mM HEPES-KOH pH 8.0, 150 mM NaCl, 200 mM imidazole, 25 C; conditions: protein: recombinant; tags: MBP (pMAL-c2x), 6xHis; label: Biotin at both ends

## GUUGUUUUGUUUGUUGUUUUGUUU (ssRNA) [GU-rich probe (EMSA, biotin)]
[1]
  binding result: binds
[2]
  binding result: no binding

## GAAGAGAAGAAGAGAAGAAGAGAA (ssRNA) [GA-rich RNA (unlabeled; ITC and competitor)]
[3]
  Kd: ~20 µM

## GUUGUUUUGUUUGUUGUUUUGUUU (ssRNA) [GU-rich RNA (unlabeled; ITC and competitor)]
[3]
  binding result: no binding
[4]
  binding result: binds

## UUCUCUUCUUCUCUUCUUCUCUUC (ssRNA) [UC-rich probe (antisense of GA-rich; EMSA, biotin)]
[5]
  binding result: no binding
